Assay results: the supplement of paper PMC12042874
± gives the uncertainty stated by the source.

Assay: amyloid nucleation score (Sup35N fusion, yeast selection) (log enrichment); library NNK1; higher = more nucleation; inactive = no reads after selection
Method in brief: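 Nucleation score: DiMSum log enrichment of output over input reads, centred on the mode score of non-aggregating sequences. Only sequences with at least 100 input reads were kept. Reads came from Illumina sequencing of plasmid inserts before and after 7 days of growth at 30°C without adenine and uracil, in psi-negative yeast expressing Sup35N fused to peptides of 20 random codons after 24 hours of induction with 100 μM copper sulfate.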

Row | Substance | amyloid nucleation score
1 | IGACLRQSLVISYDVIFMLL | inactive
2 | LPSVESLHRTTSCVYF | -0.561 ± 1.2
3 | PFGVVGDVFQSTLC | 0.371 ± 0.84
4 | ECDYDYGTSWSQVSYVRGV | -0.773 ± 1.2
5 | LNDGTGDQ | -0.138 ± 0.37
6 | MNVVILEAYGRSPIGMQAFF | 2.59 ± 0.18
7 | QGSIHY | inactive
8 | SAGHLNYNEWLNGCGDRGKC | -0.367 ± 0.53
9 | TFHWMKDAALSQSSVKRTMA | 0.359 ± 0.59
10 | SVWFWFSKGWFSLCWAFFEK | 0.428 ± 1.2
